Measurements reported in US7501496 (ROCHE PALO ALTO, dated 2009).

T1: Recombinant soluble human OX40L fused to a Histidine tag (human, UniProt P23510 51-183)
T1 construct: extracellular domain; there it was reduced and LDS-denatured; also called hOX40L-His; hOx40L-His; not shown: Histidine tag
T1 sequence (looked up): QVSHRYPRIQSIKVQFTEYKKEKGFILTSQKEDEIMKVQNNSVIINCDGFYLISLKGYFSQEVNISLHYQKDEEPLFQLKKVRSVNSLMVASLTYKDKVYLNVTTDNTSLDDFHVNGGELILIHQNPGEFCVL

T2: human OX40L expressed on cells (K562-hOX40L cells; HUVEC) (human, UniProt P23510 1-183)
T2 sequence (looked up): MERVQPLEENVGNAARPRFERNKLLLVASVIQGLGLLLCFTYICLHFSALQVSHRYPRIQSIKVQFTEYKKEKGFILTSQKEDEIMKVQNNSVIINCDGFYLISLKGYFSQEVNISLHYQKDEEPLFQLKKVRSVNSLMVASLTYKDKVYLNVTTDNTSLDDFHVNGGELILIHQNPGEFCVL


Assays:
[1] = target: T1, Recombinant soluble human OX40L fused …; assay: SPR, Biacore 3000; antibody captured via anti-Fcγ on CM5, hOX40L-His as analyte, 1:1 Langmuir fit
Procedure: (§1) Instrument: Biacore 3000, running and reaction buffer: HBS-P (10 mM HEPES, 150 mM NaCl, 0.005% Tween 20, ph 7.4), 25° C. Injection of analyte was performed at 7 concentrations between 0.78 nM and 100 nM for 3 minutes and washed with HBS-P for 5 minutes. Regeneration of the surface (carboxymethylated dextrane surface, CM) was performed by two injections of 10 mM Glycine pH 2.0 for 1 min each. The chip, assay format and sequence of injections and kinetic data correspond to the description in the following table. Kinetic data were calculated by fitting kinetic data to a 1:1 Langmuir binding model.

[2] = target: T1, Recombinant soluble human OX40L fused …; assay: SPR, Biacore 3000; antibody captured via anti-Fcγ on CM5, hOX40L-His as analyte, 1:1 Langmuir fit; native hOX40L-His as analyte in SPR, antibody captured via Anti-hFcg, HBS-P pH 7.4, 25 C
Procedure: as §1

[3] = target: T1, Recombinant soluble human OX40L fused …; assay: SPR competition; hOX40L-His (10 nM) preincubated with antibody (0.78-100 nM), injected over immobilized OX40-hFc; native hOX40L-His (10 nM) preincubated with the antibody in solution, competition for immobilized OX40-hFc
Procedure: Instrument: Biacore 3000, running and reaction buffer: HBS-P (10 mM HEPES, 150 mM NaCl, 0.005% Tween 20, ph 7.4), 25° C. Prior to injection the analyte (10 nM) and competitor (eight concentrations between 0.78 nM and 100 nM) were preincubated for at least 20 min at 22° C. Injection of analyte+/−competitor was performed for 3 minutes and washed with HBS-P for three minutes. Regeneration of the surface was performed by two injections of 10 mM Glycine pH 2.0 for 1 min each. The chip, assay format and sequence of injections and kinetic data correspond to the description in the following table 3.

[4] = target: T2, human OX40L expressed on cells …; assay: cell-based or functional assay

Row | Binder | Kd [1] | koff [1] | kon [1] | Kd [2] | koff [2] | kon [2] | IC50 [3] | IC50, IL-2 release of PHA-activated PBL co-stimulated with K562_OX40L cells [4]
1 | Human anti-human OX40L monoclonal antibody LC.033 (antibody, V domains shown, also called LC2010-033; hu-Mab<hOX40L>LC.033) VH: QKQLVEFGGGVVQPGRSLRLSCAASGFTFSNYGMHWVRQAPGKGLEWVAVIWNDGSNKYYVDSVKGRFIISRDNSKNTLYLQMNSLRAEDTAVYYCARDRMGIYYYGMDVWGQGTTVTVSS VL: EIVLTQSPATLSLSPGERATLSCRASQGVSRYLAWYQQKPGQAPRLLIYDASNRATGIPARVSGSGPGTDFTLTISSLEPEDFAVDYCQQRSNWQYTFGQGTKLEI | < 0.014 nM | 2.09e-07 s⁻¹ | 70100 M⁻¹ s⁻¹ | – | – | – | – | –
2 | Human anti-human OX40L monoclonal antibody LC.005 (antibody, IgG1, V domains shown, also called LC2010-005; hu-Mab<hOX40L>LC.005) VH: QVQLVESGGGVVQPGRSLRLSCAASGFTFSNFGMHWVRQAPGKGLEWVAAIWYDGHDKYYSYYVKGRFTISRDNSKNTLFLQMNSLRAEDTAVYYCARDSSSWYRYFDYWGQGTLVTVSS VL: not shown | – | – | – | < 0.015 nM | < 1e-06 s⁻¹ | 68400 M⁻¹ s⁻¹ | 3 nM | 10 nM
3 | Human anti-human OX40L monoclonal antibody LC.010 (antibody, IgG1, V domains shown, also called LC2010-010; hu-Mab<hOX40L>LC.010) VH: QVQLVESGGGVVQPGRSLRLSCAASGFTFSNFGMHWVRQAPGKGLEWVAAIWYDGHDKYYAYYVKGRFTISRDNSKNTLFLQMNSLRAEDTAVYYCARDSSSWYRYFDYWGQGTLVTVSS VL: not shown | 0.399 nM | 2.5e-05 s⁻¹ | 62500 M⁻¹ s⁻¹ | – | – | – | – | –
